Measured values taken from patent CN113861292A (BIO THERA SOLUTIONS LTD, dated 2021).
One block for each binder: values may come before it.

Legend:
人CD40 [1] = target: T1, 人CD40 (human, UniProt P25942 21-277); assay: flow cytometry (MFI) on HT1080-hCD40 cells
T1 construct: whole, on cells; also called hCD40; CD40 on Daudi cells

人CD40 [2] = target: T1, 人CD40; assay: flow cytometry (MFI) on Daudi cells expressing CD40
mCD40-his(小鼠CD40) = target: T2, mCD40-his(小鼠CD40) (小鼠 (mouse), UniProt P27512 24-193, limits assumed); assay: ELISA, 2 μg/ml mCD40-his coated, HRP second antibody
T2 construct: Bought His-tagged protein; also called 小鼠的CD40
T2 sequence (looked up): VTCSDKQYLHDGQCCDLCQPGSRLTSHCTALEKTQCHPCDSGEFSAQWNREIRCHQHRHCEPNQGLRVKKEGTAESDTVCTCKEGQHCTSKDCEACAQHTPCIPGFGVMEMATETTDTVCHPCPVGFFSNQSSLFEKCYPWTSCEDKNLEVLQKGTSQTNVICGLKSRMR

T1 sequence (P25942 21-277): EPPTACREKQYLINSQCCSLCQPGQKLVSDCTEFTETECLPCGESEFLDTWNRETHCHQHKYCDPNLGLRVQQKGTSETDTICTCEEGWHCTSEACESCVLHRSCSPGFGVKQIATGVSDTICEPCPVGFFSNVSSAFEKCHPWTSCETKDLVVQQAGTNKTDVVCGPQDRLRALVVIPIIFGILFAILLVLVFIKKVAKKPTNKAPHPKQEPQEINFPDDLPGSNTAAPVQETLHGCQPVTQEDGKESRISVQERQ

- EC50 (人CD40 [1]): 0.995 µg/mL
- EC50 (人CD40 [2]): 0.86 µg/mL
B1: APX005 (antibody, V domains shown)
VH: QVQLVESGGGVVQPGRSLRLSCAASGFSFSSTYVCWVRQAPGKGLEWIACIYTGDGTNYSASWAKGRFTISKDSSKNTVYLQMNSLRAEDTAVYFCARPDITYGFAINFWGPGTLVTVSS
VL: DIQMTQSPSSLSASVGDRVTIKCQASQSISSRLAWYQQKPGKPPKLLIYRASTLASGVPSRFSGSGSGTDFTLTISSLQPEDVATYYCQCTGYGISWPIGGGTKVEIK

- EC50 (人CD40 [1]): 0.593 µg/mL
- EC50 (人CD40 [2]): 0.414 µg/mL
- binding result (mCD40-his(小鼠CD40)): no binding
B2: 抗体25 (antibody, human IgG1, kappa, V domains shown)
VH: EVQLVESGGGLVQPGGSLRLSCAASGFSFGTYAMSWVRQAPGKGLEWVSGIDSGTGNPFYADSVKGRFTISRDNSKNTLYLQMNSLRAEDTAVYYCARALYYTGFYRPLDYWGQGTLVTVSS
VL: DIQMTQSPSSLSASVGDRVTITCRASQGISSYLAWYQQKPGKAPKLLIYAASSLQSGVPSRFSGSGSGTDFTLTISSLQPEDFATYYCQQHYTTPPTFGQGTKVEIKR
notes: also called antibody 25; 抗CD40抗体
